Experimental data reported in patent US20040018971A1 (published 2004).
Where no end group is shown, it is not given here. [ ]: non-standard residue; d: D form. Abu = CC[C@H](N)C(=O)O

Tests used:
[1] = target: T1, HLA-A*0201 (human); assay: competition with 125I-labelled probe peptide for purified HLA-A*0201, gel filtration
T1 construct: Purified HLA class I molecule (MHC, no peptide specified); also called HLA-A2.1

[2] = target: T2, HLA-A*0301 (human); assay: competition with 125I-labelled probe peptide on purified HLA-A*0301, gel filtration; ratio to standard peptide 941.12
T2 construct: Purified HLA molecule, 5 to 500 nM in the assay; also called HLA-A3

[3] = target: HLA-A*3301 (human); assay: inhibition of 125I probe peptide binding to purified HLA
[4] = target: HLA-A*3101 (human); assay: as above
[5] = target: HLA-A*0301 (human); assay: as above
[6] = target: HLA-A*6801 (human); assay: as above
[7] = target: HLA-A*1101 (human); assay: as above
[8] = target: HLA-B*5301 (human); assay: competition with 125I probe peptide, purified HLA
[9] = target: HLA-B*0702 (human); assay: competition with 125I probe peptide, purified HLA
[10] = target: HLA-B*5101 (human); assay: competition with 125I probe peptide, purified HLA

Binder: LAVLDNGDPL (Synthetic peptide) [HER2/neu peptide, position 114, 10 amino acids]
- relative binding ratio [1]: 0.0002 ratio (IC50 of standard peptide / IC50 of test peptide)

Binder: VVQGNLELTY [HER2/neu peptide, position 55, 10 amino acids]
- relative binding ratio (IC50 of standard peptide / IC50 of test peptide) [2]: 0.0024 relative binding ratio

Binder: KIRKYTMRRL (Synthetic peptide) [HER2/neu peptide, position 681, 10 amino acids]
- relative binding ratio [1]: 0.0001 ratio (IC50 of standard peptide / IC50 of test peptide)

Binder: LLALLPPGAA (Synthetic peptide) [HER2/neu peptide, position 12, 10 amino acids]
- relative binding ratio [1]: 0.0006 ratio (IC50 of standard peptide / IC50 of test peptide)

Binder: VTAEDGTQR [HER2/neu peptide, position 322, 9 amino acids]
- relative binding ratio (IC50 of standard peptide / IC50 of test peptide) [2]: 0.0002 relative binding ratio

Binder: WIPDGENVK [HER2/neu peptide, position 739, 9 amino acids]
- relative binding ratio (IC50 of standard peptide / IC50 of test peptide) [2]: 0.0002 relative binding ratio

Binder: VLIAHNQVR [HER2/neu peptide, position 84, 9 amino acids]
- relative binding ratio (IC50 of standard peptide / IC50 of test peptide) [2]: 0.0033 relative binding ratio

Binder: LLVVVLGVV (Synthetic peptide) [HER2/neu peptide, position 662, 9 amino acids]
- relative binding ratio [1]: 0.0001 ratio (IC50 of standard peptide / IC50 of test peptide)

Binder: QLRSLTEILK (synthetic peptide) [Her2/neu.141]
- IC50 [3]: 6170 nM
- IC50 [4]: 667 nM
- IC50 [5]: 55 nM

Binder: KITDFGLARL (Synthetic peptide) [HER2/neu peptide, position 860, 10 amino acids]
- relative binding ratio [1]: 0.002 ratio (IC50 of standard peptide / IC50 of test peptide)

Binder: LAALCRWGLL (Synthetic peptide) [HER2/neu peptide, position 3, 10 amino acids]
- relative binding ratio [1]: 0.0022 ratio (IC50 of standard peptide / IC50 of test peptide)

Binder: LLPPGAAST (Synthetic peptide) [HER2/neu peptide, position 15, 9 amino acids]
- relative binding ratio [1]: 0.0007 ratio (IC50 of standard peptide / IC50 of test peptide)

Binder: VTGASPGGLR [HER2/neu peptide, position 129, 10 amino acids]
- relative binding ratio (IC50 of standard peptide / IC50 of test peptide) [2]: 0.0002 relative binding ratio

Binder: WMALESILR [HER2/neu peptide, position 888, 9 amino acids]
- relative binding ratio (IC50 of standard peptide / IC50 of test peptide) [2]: -0.0002 relative binding ratio

Binder: VLVKSPNHVK [HER2/neu peptide, position 851, 10 amino acids]
- relative binding ratio (IC50 of standard peptide / IC50 of test peptide) [2]: 0.082 relative binding ratio

Binder: VSEFSRMAR [HER2/neu peptide, position 973, 9 amino acids]
- relative binding ratio (IC50 of standard peptide / IC50 of test peptide) [2]: -0.0002 relative binding ratio

Binder: IVWLGLRSLR (synthetic analog peptide) [Her2/neu.450.V2]
- IC50 [3]: 193 nM
- IC50 [6]: 7.3 nM
- IC50 [4]: 11 nM
- IC50 [7]: 1940 nM
- IC50 [5]: 234 nM

Binder: ISWLGLRSLR (synthetic peptide) [Her2/neu.450]
- IC50 [3]: 223 nM
- IC50 [6]: 73 nM
- IC50 [4]: 6.9 nM
- IC50 [5]: 268 nM

Binder: TVLWKDIFHR (synthetic analog peptide) [Her2/neu.166.V2R10]
- IC50 [3]: 76 nM
- IC50 [6]: 42 nM
- IC50 [4]: 600 nM
- IC50 [7]: 286 nM
- IC50 [5]: 8460 nM

Binder: YLEDVRLVHR [HER2/neu peptide, position 835, 10 amino acids]
- relative binding ratio (IC50 of standard peptide / IC50 of test peptide) [2]: 0.0003 relative binding ratio

Binder: ILLVVVLGV (Synthetic peptide) [HER2/neu peptide, position 661, 9 amino acids]
- relative binding ratio [1]: 0.002 ratio (IC50 of standard peptide / IC50 of test peptide)

Binder: LLEDDDMGDL (Synthetic peptide) [HER2/neu peptide, position 1008, 10 amino acids]
- relative binding ratio [1]: 0.0001 ratio (IC50 of standard peptide / IC50 of test peptide)

B1: HER2/neu peptide, position 883, 9 amino acids (peptide)
peptide: KVPIKWMAL
notes: Synthetic peptide; also called KVPIKWMAL
- relative binding ratio [1]: 0.0002 ratio (IC50 of standard peptide / IC50 of test peptide)

Binder: IVWKDIFHK (synthetic analog peptide) [Her2/neu.167.V2]
- IC50 [3]: 853 nM
- IC50 [4]: 247 nM
- IC50 [7]: 40 nM
- IC50 [5]: 23 nM

Binder: ILWKDIFHK (synthetic peptide) [Her2/neu.167]
- IC50 [3]: 967 nM
- IC50 [6]: 1740 nM
- IC50 [4]: 82 nM
- IC50 [7]: 19 nM
- IC50 [5]: 39 nM

Binder: IVWKDIFHR (synthetic analog peptide) [Her2/neu.167.V2R9]
- IC50 [3]: 16 nM
- IC50 [6]: 15 nM
- IC50 [4]: 6 nM
- IC50 [7]: 286 nM
- IC50 [5]: 143 nM

Binder: KIPVAIKVL (Synthetic peptide) [HER2/neu peptide, position 747, 9 amino acids]
- relative binding ratio [1]: 0.0002 ratio (IC50 of standard peptide / IC50 of test peptide)

Binder: TILWKDIFHK (synthetic peptide) [Her2/neu.166]
- IC50 [3]: 690 nM
- IC50 [6]: 200 nM
- IC50 [4]: 487 nM
- IC50 [7]: 1.7 nM
- IC50 [5]: 256 nM

Binder: CPSGVKPDLSI (analog peptide) [Her2/neu.600.I11]
- IC50 [8]: 344 nM
- IC50 [9]: 290 nM
- IC50 [10]: 138 nM

Binder: WMALESILRR [HER2/neu peptide, position 888, 10 amino acids]
- relative binding ratio (IC50 of standard peptide / IC50 of test peptide) [2]: 0.0085 relative binding ratio

Binder: WMIDSECRPR [HER2/neu peptide, position 959, 10 amino acids]
- relative binding ratio (IC50 of standard peptide / IC50 of test peptide) [2]: -0.0002 relative binding ratio

Binder: LLALLPPGA (Synthetic peptide) [HER2/neu peptide, position 12, 9 amino acids]
- relative binding ratio [1]: 0.0008 ratio (IC50 of standard peptide / IC50 of test peptide)

Binder: TVPWDQLFR [HER2/neu peptide, position 479, 9 amino acids]
- relative binding ratio (IC50 of standard peptide / IC50 of test peptide) [2]: 0.0006 relative binding ratio

Binder: LLLALLPPGA (Synthetic peptide) [HER2/neu peptide, position 11, 10 amino acids]
- relative binding ratio [1]: 0.0054 ratio (IC50 of standard peptide / IC50 of test peptide)

B2: Her2/neu.218.B3B7 (peptide)
peptide: TV[Abu]AGG[Abu]AR
notes: synthetic analog peptide; also called TVBAGGBAR
- IC50 [3]: 242 nM
- IC50 [6]: 8 nM
- IC50 [4]: 247 nM
- IC50 [7]: 111 nM
- IC50 [5]: 314 nM

Binder: HVVPWDQLFR (synthetic analog peptide) [Her2/neu.478.V2]
- IC50 [3]: 193 nM
- IC50 [6]: 3.6 nM
- IC50 [4]: 391 nM
- IC50 [7]: 1330 nM
- IC50 [5]: 7330 nM

Binder: HTVPWDQLFR (synthetic peptide) [Her2/neu.478]
- IC50 [3]: 88 nM
- IC50 [6]: 4 nM
- IC50 [4]: 19 nM
- IC50 [7]: 83 nM
- IC50 [5]: 3140 nM

Binder: ILKETELRKV (Synthetic peptide) [HER2/neu peptide, position 714, 10 amino acids]
- relative binding ratio [1]: 0.0001 ratio (IC50 of standard peptide / IC50 of test peptide)

Binder: VLQGLPREY [HER2/neu peptide, position 546, 9 amino acids]
- relative binding ratio (IC50 of standard peptide / IC50 of test peptide) [2]: 0.0012 relative binding ratio

Binder: YVMAGVGSPY [HER2/neu peptide, position 772, 10 amino acids]
- relative binding ratio (IC50 of standard peptide / IC50 of test peptide) [2]: 0.01 relative binding ratio

Binder: LLNWCMQIA (Synthetic peptide) [HER2/neu peptide, position 822, 9 amino acids]
- relative binding ratio [1]: 0.0046 ratio (IC50 of standard peptide / IC50 of test peptide)

Binder: ILKGGVLIQR (synthetic peptide) [Her2/neu.148]
- IC50 [3]: 121 nM
- IC50 [4]: 25 nM
- IC50 [5]: 275 nM

Binder: IVKGGVLIQK (synthetic analog peptide) [Her2/neu.148.V2K10]
- IC50 [3]: 6590 nM
- IC50 [6]: 27 nM
- IC50 [4]: 450 nM
- IC50 [7]: 102 nM
- IC50 [5]: 26 nM

Binder: VARCPSGVK [HER2/neu peptide, position 597, 9 amino acids]
- relative binding ratio (IC50 of standard peptide / IC50 of test peptide) [2]: 0.01 relative binding ratio

Binder: LIAHNQVRQV (Synthetic peptide) [HER2/neu peptide, position 85, 10 amino acids]
- relative binding ratio [1]: 0.0001 ratio (IC50 of standard peptide / IC50 of test peptide)

Binder: YVLIAHNQVR [HER2/neu peptide, position 83, 10 amino acids]
- relative binding ratio (IC50 of standard peptide / IC50 of test peptide) [2]: 0.0043 relative binding ratio

Binder: LLGICLTSTV (Synthetic peptide) [HER2/neu peptide, position 785, 10 amino acids]
- relative binding ratio [1]: 0.049 ratio (IC50 of standard peptide / IC50 of test peptide)
